Data published in the supplement of paper PMC7877785.
± gives the uncertainty stated by the source.

Test: self-splicing fitness, log relative to wild type (ln ratio); higher = more splicing; Tetrahymena group I intron in knt gene, E. coli kanamycin selection, DiMSum; sequences stand for … in CUCUCU…GGAGGGAAAAGUUAUCAGGCAUGCACCUGGUAGCUAGUCUUUAAACCAAUAGAUUGCAUCGGUUUAAAAGGCAAGACCGUCAAAUUGCGGGAAAGGGGUCAACAGCCGUUCAGUACCAAGUCUCAGGGGAAACUUUGAGAUGGCCUUGCAAAGGGUAUGGUAAUAAGCUGACGGACAUGGUCCUAACCACGCAGCCAAGUCCUAAGUCAACAGAUCUUCUGUUGAUAUGGAUGCAGUUCACAGACUAAAUGUCGGUCGGGGAAGAUGUAUUCUUCUCAUAAGAUAUAGUCGGACCUCUCCUUAAUGGGAGCUAGCGGAUGAAGUGAUGCAACACUGGAGCCGCUGGGAACUAAUUUGUAUGCGAAAGUAUAUUGAUUAGUUUUGGAGUACUCGUGGUCG
Method in brief: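 Fitness was computed with DiMSum as the error-weighted combination of replicate fold changes, kanamycin versus none, each normalised to wild type. The library randomised all eight intron nucleotides of the P1ex region, with the intron placed in the knt kanamycin-resistance gene on pET-22b(+) in E. coli BL21(DE3). Six replicate transformations were grown overnight at 37°C or 30°C on LB agar with or without 25 μg/mL kanamycin, plus 100 μg/mL carbenicillin, 50 μM IPTG and 0.2% rhamnose. Pooled colonies were amplicon-sequenced on an Illumina HiSeq 2500.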

Sequence	self-splicing fitness (ln) (30 °C)	self-splicing fitness (ln) (37 °C)
AAUUAGCAAUAUUACGGGAU	-2.28 ± 0.22	-1.37 ± 0.2
AAUUAGCAAUAUUACGGGCA	-0.73 ± 0.14	0.186 ± 0.11
AAUUAGCAAUAUUACGUCAA	-2.11 ± 0.17	-0.791 ± 0.22
AAUUAGCAAUAUUACGUCUG	-1.72 ± 0.15	-0.251 ± 0.17
AAUUAGCAAUAUUACGUUAA	-1.19 ± 0.12	-0.801 ± 0.17
AAUUAGCAAUAUUACGUUCU	-0.609 ± 0.077	-0.522 ± 0.099
AAUUAGCAAUAUUACGUUUA	-1.6 ± 0.12	-0.975 ± 0.12
ACAAAGCAAUAUUACGAAAA	-2.93 ± 0.25	-2.42 ± 0.27
ACAAAGCAAUAUUACGAAAG	-1.59 ± 0.12	-1.32 ± 0.14
ACAAAGCAAUAUUACGAAGA	-3.03 ± 0.42	-0.86 ± 0.18
ACAAAGCAAUAUUACGACUG	-0.48 ± 0.06	-0.066 ± 0.09
ACAAAGCAAUAUUACGAGAA	-2.54 ± 0.28	-2.87 ± 0.35
ACAAAGCAAUAUUACGAGAC	-3.61 ± 0.21	-2.57 ± 0.2
ACAAAGCAAUAUUACGAGUG	-1.37 ± 0.068	-0.772 ± 0.081
ACAAAGCAAUAUUACGCAGU	-3.46 ± 0.2	-2.78 ± 0.21
ACAAAGCAAUAUUACGCGAC	-2.02 ± 0.11	-1.16 ± 0.12
ACAAAGCAAUAUUACGCUAA	-2.51 ± 0.13	-1.14 ± 0.086
ACAAAGCAAUAUUACGCUGA	-2.65 ± 0.2	-1.14 ± 0.15
ACAAAGCAAUAUUACGGAAA	-2.26 ± 0.18	-1.7 ± 0.21
ACAAAGCAAUAUUACGGAAG	-2.47 ± 0.091	-1.61 ± 0.11
ACAAAGCAAUAUUACGGAGU	-3.79 ± 0.15	-2.9 ± 0.17
ACAAAGCAAUAUUACGGCAU	-0.565 ± 0.046	0.328 ± 0.058
ACAAAGCAAUAUUACGGCCC	-0.546 ± 0.13	-0.479 ± 0.2
